EP4431529A1 (Sunshine Guojian Pharmaceutical (Shanghai) Co., Ltd., dated 2024)

Key:
IL-17A protein [1] = biological target: T1, IL-17A protein (human, UniProt Q16552 24-155); assay: SPR, Biacore 8K, antibody captured on Protein A, IL-17A as analyte
T1 construct: Embodiments 3 and 4 say only 'IL-17A'; Treated as one molecule; also called human IL-17A
T1 sequence (looked up): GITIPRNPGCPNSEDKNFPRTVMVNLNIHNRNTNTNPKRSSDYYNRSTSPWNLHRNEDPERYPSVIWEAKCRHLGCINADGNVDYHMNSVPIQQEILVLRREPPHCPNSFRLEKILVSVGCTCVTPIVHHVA

IL-17A protein [2] = biological target: T1, IL-17A protein; assay: cell-based or functional assay
VEGF165 = biological target: T2, VEGF165 (UniProt P15692-4 27-191); assay: ELISA, VEGF coated on the plate
T2 construct: treated as one molecule; also called VEGF protein; VGEF

IL-17A protein [3] = biological target: T1, IL-17A protein; assay: ELISA, IL-17A coated on the plate

T2 sequence (P15692 other isoform, or with tags, fused parts or gaps limits assumed): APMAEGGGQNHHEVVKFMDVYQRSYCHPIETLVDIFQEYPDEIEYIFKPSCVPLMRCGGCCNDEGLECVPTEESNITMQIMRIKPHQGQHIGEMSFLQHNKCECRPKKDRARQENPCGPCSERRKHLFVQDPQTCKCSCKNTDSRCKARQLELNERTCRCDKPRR

B1: anti-IL-17 monoclonal antibody 608 (antibody, human IgG1, kappa, V domains shown)
VH: EVQLVESGGGLVQPGGSLRLSCAASGFTFSSFDMSWGRQAPGKRLEWVAFMSSGGSTYYPDSVKGRFTISRDNSKNTLYLQMNSLRAEDTAVYYCARGERYGSYWGQGTLVTVSS
VL: DIQMTQSPSSLSASVGDRVTITCKASDHINNWLAWYQQKPGKAPKLLISGATSLETGVPSRFSGSGSGTDYTLTISSLQPEDFATYYCQQYWSTPFTFGSGTKLEIKR
notes: Humanized anti-human IL-17A monoclonal antibody from CN 201780033670.5; positive control
B1 was tested, and the Kd (IL-17A protein [1]) was 0.0164 nM, the koff (IL-17A protein [1]) was 4e-05 s⁻¹ and the kon (IL-17A protein [1]) was 2.44e+06 M⁻¹ s⁻¹. For the same binder, the “IC50 of blocking IL-17A-induced IL-6 secretion from HeLa cells” value (IL-17A protein [2]) was 0.877 nM, the binding result (VEGF165) was “no binding (tested: 25 nM (highest concentration tested))” and the EC50 (IL-17A protein [3]) was 0.052 nM.
